{"source": "paper PMC4057017", "target": "BG505 EnvΔCT trimer (cleaved, membrane-derived) (HIV-1 isolate BG505 (clade A))", "experiment": "single particle EM reconstruction", "data": [{"substance": "PGT151 Fab", "values": [{"measurement": "stoichiometry N (Fabs per trimer)", "value": 2}]}]}
